Test results reported in the supplement of paper PMC10126150.
± gives the standard deviation of the averaged measurements.

System: ATP
Experiment: switch fluorescence ratio, 500 uM ATP over buffer (Cy3 cluster intensity, sum of 5 cycles each) (fold (ratio)); higher = stronger signal-on switching upon ATP binding; sequences stand for … in TCGTCGGCAGCGTCAGATGTGTATAAGAGACAGTTTTTTTTTTTTTTTTTTTTTTTTT…TC
Details: aptamer strand: ATP DNA aptamer (quencher-CACCTGGGGGAGTATTGCGGAGGAAGG + anchor), 100 nM annealed; ATP concentration: 500 uM
Method in brief: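 Clusters with intensities outside 100-1000 RFU were excluded. The remaining Cy3-labelled switching-strand clusters on a modified Illumina MiSeq flow-cell had been annealed to 100 nM quencher-labelled ATP aptamer and imaged in selection buffer, then after 15 min with 500 uM ATP at 22 °C, for five cycles separated by NaOH stripping and re-annealing. The fluorescence ratio, averaged per switch-domain sequence, is each cluster's summed target-cycle Cy3 intensity over its summed buffer-cycle Cy3 intensity.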
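Further: ATP exposure 15 min at 22 °C before imaging.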

Sequence	switch fluorescence ratio
TTTTGGCATG	1.03 ± 0.034
TTTTGGCGC	1.002 ± 0.0012
TTTTGGCTAT	1.017 ± 0.0015
TTTTGGGAAA	0.989 ± 0.044
TTTTGGGACG	0.993 ± 0.082
TTTTGGGATG	0.978 ± 0.033
TTTTGGGATT	1.03 ± 0.06
TTTTGGGGCT	1.01 ± 0.03
TTTTGGGGGC	1.01 ± 0.023
TTTTGGGTC	0.999 ± 0.034
TTTTGGGTCG	1.03 ± 0.025
TTTTGGGTGA	1.01 ± 0.024
TTTTGGTACT	0.984 ± 0.027
TTTTGGTAGC	1.01 ± 0.017
TTTTGGTCGA	1.03 ± 0.022
TTTTGGTGCT	1.01 ± 0.03
TTTTGGTGGT	1.01 ± 0.024
TTTTGGTGTG	1.01 ± 0.026
TTTTGTAAGC	1.04 ± 0.083
TTTTGTAAGT	0.992 ± 0.029
TTTTGTACAT	0.99 ± 0.039
TTTTGTACGT	1.02 ± 0.041

Sequence	switch fluorescence ratio
TTTTGTATAT	1.01 ± 0.025
TTTTGTCGTT	1.03 ± 0.095
TTTTGTGAGC	0.996 ± 0.021
TTTTGTGGAT	1.05 ± 0.053
TTTTGTGGTG	1.001 ± 0.007
TTTTGTGTCA	0.969 ± 0.029
TTTTGTGTGG	1.01 ± 0.026
TTTTGTTATT	1.03 ± 0.068
TTTTGTTGAT	1.03 ± 0.052
TTTTTAAAAC	1.003 ± 0.0097
TTTTTAAAG	1.022 ± 0.0083
TTTTTAACTA	0.993 ± 0.012
TTTTTAACTT	0.995 ± 0.022
TTTTTACAAT	1.01 ± 0.039
TTTTTACGCA	1.154 ± 0.0098
TTTTTACGTT	1.03 ± 0.021
TTTTTAGACT	1 ± 0.038
TTTTTAGATA	0.973 ± 0.038
TTTTTAGATC	1.004 ± 0.0088
TTTTTAGGAC	0.997 ± 0.014
TTTTTAGGG	0.983 ± 0.034
TTTTTAGTCT	1 ± 0.027

Sequence	switch fluorescence ratio
TTTTTATGTT	0.99 ± 0.032
TTTTTATTTA	0.991 ± 0.025
TTTTTCAAAT	1.04 ± 0.076
TTTTTCACG	1 ± 0.04
TTTTTCCACG	1.03 ± 0.018
TTTTTCCCCA	1.05 ± 0.042
TTTTTCCCTT	1.01 ± 0.034
TTTTTCGAAG	0.9894 ± 0.0098
TTTTTCGGAT	1.05 ± 0.14
TTTTTCGGGC	1.08 ± 0.24
TTTTTCGGGT	0.974 ± 0.018
TTTTTCTACA	1.11 ± 0.12
TTTTTCTCGA	0.991 ± 0.034
TTTTTCTGTT	0.984 ± 0.039
TTTTTGAAAA	1.018 ± 0.0055
TTTTTGACTT	1.005 ± 0.0092
TTTTTGAGTG	0.976 ± 0.02
TTTTTGATCG	0.997 ± 0.039
TTTTTGATCT	0.998 ± 0.016
TTTTTGCACC	1.04 ± 0.037
TTTTTGCATA	1.25 ± 0.26
TTTTTGCTCG	1 ± 0.03

Sequence	switch fluorescence ratio
TTTTTGGAGT	1.05 ± 0.07
TTTTTGGCAC	0.982 ± 0.029
TTTTTGGCTC	1.01 ± 0.019
TTTTTGGGAC	1.03 ± 0.045
TTTTTGGGCA	0.99 ± 0.013
TTTTTGGGCG	1.01 ± 0.022
TTTTTGGGTC	1.03 ± 0.12
TTTTTGGTAA	1.01 ± 0.021
TTTTTGGTAC	1.05 ± 0.076
TTTTTGTAAC	1.01 ± 0.022
TTTTTGTAGT	1.01 ± 0.032
TTTTTGTCCC	1.04 ± 0.054
TTTTTGTCCG	1.02 ± 0.042
TTTTTGTCTG	0.9814 ± 0.0091
TTTTTGTGCA	1.01 ± 0.011
TTTTTGTTCG	0.998 ± 0.015
TTTTTTAATA	1 ± 0.036
TTTTTTACAG	1.02 ± 0.011
TTTTTTACCA	1.01 ± 0.036
TTTTTTACCG	1.02 ± 0.04
TTTTTTACGT	1.043 ± 0.0092
TTTTTTACTT	1.03 ± 0.054

Sequence	switch fluorescence ratio
TTTTTTAGAG	1.004 ± 0.0068
TTTTTTAGTG	0.981 ± 0.026
TTTTTTATGG	1.01 ± 0.031
TTTTTTCCAC	1.01 ± 0.028
TTTTTTCTCT	0.994 ± 0.02
TTTTTTGCTT	0.989 ± 0.038
TTTTTTGT	0.982 ± 0.021
TTTTTTGTCC	1.01 ± 0.018
TTTTTTTAGT	0.996 ± 0.022
TTTTTTTATC	1.01 ± 0.027
TTTTTTTCAC	0.953 ± 0.058
TTTTTTTCCC	1.01 ± 0.018
TTTTTTTCGC	1.01 ± 0.032
TTTTTTTCTA	0.99 ± 0.014
TTTTTTTG	0.997 ± 0.026
TTTTTTTGCC	1 ± 0.058
TTTTTTTTAG	1.07 ± 0.27
TTTTTTTTGG	0.998 ± 0.032
TTTTTTTTTG	0.987 ± 0.025
